For the test, the target named is T1, C-terminal tail peptide (FITC-SMEAVDSERRPHFPQFSYSASGTA) (human, C460A (from the letters against P31749, from memory; not stated by the paper) …, FITC (fluorescein) on the N-terminus; unphosphorylated).
T1 construct: residues 457 to 480 of human Akt1 (the C-terminal tail residues missing in Akt1^ΔC); The methods call it 'the C-terminal 35 amino acids of Akt1', but the printed peptide has 24 residues; also called fluorescein-labeled peptide (unphosphorylated)
T1 peptide: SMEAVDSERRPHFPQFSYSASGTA
Kind of test: fluorescence polarisation; fluorescence anisotropy; reverse titration of 200 to 250 µM Akt1^ΔC in buffer with 100 nM fluorescein-labeled peptide; 20 °C, 20 mM Tris pH 8.0, 100 mM NaCl, 1 mM TCEP; one-site binding model; three independent titrations; saturation not reached. To be noted: both partners purified. On the technique in general: Polarisation of emitted light reports the rotation of a fluorescent probe.

Drawing on paper PMC8379990, “Structure of autoinhibited Akt1 reveals mechanism of PIP3-mediated activation” (Proceedings of the National Academy of Sciences of the …, 2021), this text covers Kd for one molecule.

B1: Akt1 1 to 456 (Akt1^ΔC) (domain or fragment)
chain: MNDVAIVKEGWLHKRGEYIKTWRPRYFLLKNDGTFIGYKERPQDVDQREAPLNNFSVAQCQLMKTERPRPNTFIIRCLQWTTVIERTFHVETPEEREEWTTAIQTVADGLKKQEEEEMDASAEHTDMEVSLAKPKHRVTMNEFEYLKLLGKGTFGKVILVKEKATGRYYAMKILKKEVIVAKDEVAHTLTENRVLQNSRHPFLTALKYSFQTHDRLCFVMEYANGGELFFHLSRERVFSEDRARFYGAEIVSALDYLHSEKNVVYRDLKLENLMLDKDGHIKITDFGLCKEGIKDGATMKTFCGTPEYLAPEVLEDNDYGRAVDWWGLGVVMYEMMCGRLPFYNQDHEKLFELILMEEIRFPRTLGPEAKSLLSGLLKKDPKQRLGGGSEDAKEIMQHRFFAGIVWQHVYEKKLSPPFKPQVTSETDTRYFDEEFTAQMITITPPDQDD
modifications: phosphothreonine at T450 (stoichiometrically monophosphorylated, turn motif)
Turning to B1, the Kd was ~500 µM.

Usually Kd stands for the concentration at which binding is half-saturated.
